Tested on: peptide library, one residue held at a place counted from the S/T acceptor
Experiment: relative phosphorylation of the sub-library (ratio to the mean residue at this position); human; higher = residue favoured
How it was run: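 In 384-well plates, purified recombinant kinases (human or orthologue constructs) were incubated for 90 min under kinase-specific conditions with 50 μM biotinylated degenerate peptide sub-libraries and 50 μM ATP spiked with γ-32P-ATP. Each sub-library fixed a single residue at one position around a central Ser/Thr. Relative sub-library phosphorylation, measured by phosphorimaging and densitometry of streptavidin membrane spots, is given as a ratio to the mean residue at that position.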

TNIK, construct: aa1-314, sequence (Q9UKE5 1-314, looked up): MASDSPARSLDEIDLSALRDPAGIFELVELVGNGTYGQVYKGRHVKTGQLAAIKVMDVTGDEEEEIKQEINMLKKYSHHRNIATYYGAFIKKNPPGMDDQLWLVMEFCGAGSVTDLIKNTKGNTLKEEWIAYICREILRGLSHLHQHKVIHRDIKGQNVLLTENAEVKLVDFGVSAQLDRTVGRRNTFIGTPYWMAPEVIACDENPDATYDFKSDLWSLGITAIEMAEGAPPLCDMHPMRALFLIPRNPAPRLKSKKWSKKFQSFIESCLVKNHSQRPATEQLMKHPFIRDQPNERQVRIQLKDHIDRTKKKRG
TP53RK, construct: Full length, sequence (Q96S44 whole entry, looked up): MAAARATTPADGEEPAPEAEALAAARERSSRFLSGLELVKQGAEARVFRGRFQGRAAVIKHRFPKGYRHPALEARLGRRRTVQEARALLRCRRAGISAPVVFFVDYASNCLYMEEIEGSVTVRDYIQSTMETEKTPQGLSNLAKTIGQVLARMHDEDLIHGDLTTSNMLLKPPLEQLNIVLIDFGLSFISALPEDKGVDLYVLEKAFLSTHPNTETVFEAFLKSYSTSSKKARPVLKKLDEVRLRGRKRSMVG

STK39, construct: Full length (from UniProt Q9UEW8)
relative phosphorylation
Settings	at +1	at +2	at +3	at +4	at -1	at -2	at -3	at -4	at -5
A fixed	0.382	0.623	0.889	0.918	0.783	0.729	0.996	1	1.13
D fixed	0.233	0.398	0.795	0.812	1.29	1.04	1.1	1.47	1.27
E fixed	0.266	0.234	0.96	0.651	1.05	0.826	0.895	1.36	1.07
F fixed	1.17	0.908	0.901	0.899	0.908	1.05	0.783	0.88	0.983
G fixed	0.24	0.824	1.06	1.27	0.606	0.888	0.933	1.2	1.07
H fixed	1.01	4.16	1.32	0.999	1.62	1.44	1.47	1.07	0.932
I fixed	2.61	0.696	0.654	0.739	0.638	0.409	0.615	0.672	0.679
K fixed	0.432	0.55	0.862	1.15	0.818	0.414	0.61	0.771	0.927
L fixed	1.56	0.65	1.01	0.921	1.32	0.721	0.646	0.76	0.619
M fixed	1.33	0.873	1.05	0.952	1.18	0.744	0.763	0.832	0.866
N fixed	0.453	1.08	1.27	1.18	1.34	1.29	1.59	1.02	0.95
P fixed	0.175	0.523	0.906	1.14	0.49	0.539	0.937	1.05	1.24
Q fixed	0.661	1.03	1.19	1.19	0.963	1.91	1.09	0.959	0.892
R fixed	0.517	0.824	1.06	1.18	1.04	0.529	0.677	0.831	0.96
V fixed	1.84	1.04	0.72	0.694	0.584	0.457	0.623	0.769	0.911
W fixed	2.89	0.987	1.16	1.37	1.06	1.17	1.03	1.18	1.17
Y fixed	1.23	1.61	1.19	0.933	1.3	2.84	2.24	1.17	1.34
pThr fixed	0.677	0.474	0.767	0.493	0.867	0.793	1.11	1.19	1.25
pTyr fixed	0.614	0.352	1	0.586	1.77	1.16	1.02	1.25	1.45

TNIK, construct: aa1-314 (from UniProt Q9UKE5)
relative phosphorylation
Settings	at +1	at +2	at +3	at +4	at -1	at -2	at -3	at -4	at -5
A fixed	0.761	1.16	0.938	1.13	1.07	1.21	1.01	1.08	1.36
D fixed	0.223	0.678	0.496	0.73	0.855	0.883	0.799	0.968	0.923
E fixed	0.249	0.591	0.389	0.656	0.682	0.577	0.76	1.1	0.885
F fixed	0.89	0.449	0.465	0.632	0.699	1.24	0.895	0.959	0.909
G fixed	0.746	1.01	0.904	1.17	1.73	1.3	1.2	1.18	1.31
H fixed	0.916	1.28	0.94	1.06	1.52	1.19	1.47	1.13	1.02
I fixed	1.49	0.459	0.381	0.593	0.326	0.689	0.701	0.73	0.724
K fixed	1.08	2.49	3.02	2.18	1.36	0.919	1.44	1.17	1.2
L fixed	2.4	0.685	0.777	0.636	0.803	0.595	0.67	0.751	0.619
M fixed	1.98	0.806	0.52	0.715	1.06	0.79	0.814	0.866	0.793
N fixed	0.843	0.992	0.871	1.02	1.33	1.19	1.15	0.792	1.02
P fixed	0.338	1.05	1.14	1.23	0.65	0.736	1.08	1.18	1.41
Q fixed	0.782	1.04	0.886	1.04	0.859	0.987	0.896	0.964	0.912
R fixed	0.995	2.4	3.23	2.2	1.7	1.19	1.33	1.17	1.22
V fixed	0.898	0.531	0.503	0.65	0.438	0.785	0.594	0.816	0.891
W fixed	1.32	0.593	0.789	0.738	0.685	1.17	1.04	0.954	0.771
Y fixed	1.08	0.783	0.745	0.619	1.23	1.55	1.16	1.19	1.02
pThr fixed	0.541	0.566	0.532	0.519	0.449	0.797	0.884	0.945	1
pTyr fixed	0.42	0.505	0.638	0.581	1.02	0.969	1.22	1.15	1.03

TP53RK, construct: Full length (from UniProt Q96S44)
relative phosphorylation
Settings	at +1	at +2	at +3	at +4	at -1	at -2	at -3	at -4	at -5
A fixed	0.941	0.938	1.06	0.947	1.23	1.24	1.01	1.17	1.05
D fixed	1.03	1.01	0.952	1.05	0.972	0.929	1.02	0.897	0.956
E fixed	1.09	1.08	0.988	1.16	1	1.04	1.1	0.973	0.922
F fixed	1.12	1.09	1.04	0.983	0.998	0.94	1.03	0.971	0.953
G fixed	0.918	0.956	1.08	0.958	1.3	1.49	1.08	1.12	0.976
H fixed	1.07	1.33	1.07	1.11	0.847	0.877	0.987	1.11	1.17
I fixed	0.913	0.816	0.945	0.896	0.976	1.01	0.878	0.829	0.893
K fixed	1.05	1.01	0.99	1.09	0.864	0.848	0.985	1.07	1.12
L fixed	1.01	0.85	0.926	0.862	1.03	0.981	0.815	0.792	0.86
M fixed	0.979	0.926	0.959	0.879	1.04	1.02	1.03	0.949	0.946
N fixed	1.01	0.998	0.947	0.955	0.933	0.927	1.02	0.966	0.961
P fixed	0.85	0.925	1.02	0.967	1.24	1.2	0.955	1.16	0.989
Q fixed	1.04	0.975	0.953	1.08	0.897	0.906	1.06	1.04	0.903
R fixed	0.973	0.971	0.964	1.01	0.857	0.853	1	1.03	1.12
V fixed	0.917	0.885	0.949	0.838	0.964	0.989	0.894	0.931	0.962
W fixed	1.05	1.13	1.04	1.15	0.907	0.867	1.14	1.07	1.16
Y fixed	1.05	1.11	1.12	1.07	0.939	0.892	0.996	0.922	1.05
pThr fixed	0.977	0.952	0.886	1.03	1.06	1.08	0.987	0.973	0.943
pTyr fixed	1.05	1.11	1.02	1.01	3.48	1.31	1.08	0.942	0.944

— the supplement of paper PMC9876800
